Results: patent US20200024360A1 (Janssen / Centocor, published 2020)

B1: PS3B27 (bispecific antibody, human IgG4 S228P, kappa, lambda, F234A L235A)
heavy 1: not shown
light 1: not shown
heavy 2: EVQLVESGGGLVQPGGSLRLSCAASGFTFNTYAMNWVRQAPGKGLEWVARIRSKYNNYATYYAASVKGRFTISRDDSKNSLYLQMNSLKTEDTAVYYCARHGNFGNSYVSWFAYWGQGTLVTVSSASTKGPSVFPLAPCSRSTSESTAALGCLVKDYFPEPVTVSWNSGALTSGVHTFPAVLQSSGLYSLSSVVTVPSSSLGTKTYTCNVDHKPSNTKVDKRVESKYGPPCPPCPAPEAAGGPSVFLFPPKPKDTLMISRTPEVTCVVVDVSQEDPEVQFNWYVDGVEVHNAKTKPREEQFNSTYRVVSVLTVLHQDWLNGKEYKCKVSNKGLPSSIEKTISKAKGQPREPQVYTLPPSQEEMTKNQVSLTCLVKGFYPSDIAVEWESNGQPENNYKTTPPVLDSDGSFLLYSKLTVDKSRWQEGNVFSCSVMHEALHNHYTQKSLSLSLGK
light 2: QTVVTQEPSLTVSPGGTVTLTCRSSTGAVTTSNYANWVQQKPGQAPRGLIGGTNKRAPGTPARFSGSLLGGKAALTLSGVQPEDEAEYYCALWYSNLWVFGGGTKLTVLGQPKAAPSVTLFPPSSEELQANKATLVCLISDFYPGAVTVAWKADSSPVKAGVETTTPSKQSNNKYAASSYLSLTPEQWKSHRSYSCQVTHEGSTVEKTVAPTECS
notes: IgG4 PAA; PSMA arm chains first, then CD3 arm (F405L, R409K); also called PSMB127 x CD3B219; PS2B27
B2: PS3B24 (bispecific antibody, human IgG4 S228P, kappa, lambda, F234A L235A)
heavy 1: not shown
light 1: not shown
heavy 2: B1 heavy 2
light 2: B1 light 2
notes: IgG4 PAA; PSMA arm chains first, then CD3 arm (F405L, R409K); also called PSMB124 x CD3B219
B3: PS3B22 (bispecific antibody, human IgG4 S228P, kappa, lambda, F234A L235A)
heavy 1: not shown
light 1: DIQMTQSPSSLSASVGDRVTITCRASQSIDRWLNWYQQKPGKAPKLLIYAASSLQSGVPSRFSGSGSGTDFTLTISSLQPEDFATYYCQQSPRYPLTFGQGTKVEIKRTVAAPSVFIFPPSDEQLKSGTASVVCLLNNFYPREAKVQWKVDNALQSGNSQESVTEQDSKDSTYSLSSTLTLSKADYEKHKVYACEVTHQGLSSPVTKSFNRGEC
heavy 2: B1 heavy 2
light 2: B1 light 2
notes: IgG4 PAA; PSMA arm chains first, then CD3 arm (F405L, R409K); also called PSMB122 x CD3B219; PSB22
B4: PS3B23 (bispecific antibody, human IgG4 S228P, kappa, lambda, F234A L235A)
heavy 1: not shown
light 1: not shown
heavy 2: B1 heavy 2
light 2: B1 light 2
notes: IgG4 PAA; PSMA arm chains first, then CD3 arm (F405L, R409K); also called PSMB123 x CD3B219
B5: PS3B28 (bispecific antibody, human IgG4 S228P, kappa, lambda, F234A L235A)
heavy 1: not shown
light 1: not shown
heavy 2: B1 heavy 2
light 2: B1 light 2
notes: IgG4 PAA; PSMA arm chains first, then CD3 arm (F405L, R409K); also called PSMB128 x CD3B219
B6: PS3B30 (bispecific antibody, human IgG4 S228P, kappa, lambda, F234A L235A)
heavy 1: not shown
light 1: not shown
heavy 2: B1 heavy 2
light 2: B1 light 2
notes: IgG4 PAA; PSMA arm chains first, then CD3 arm (F405L, R409K); also called PSMB130 x CD3B219
B7: PS3B19 (bispecific antibody, human IgG4 S228P, kappa, lambda, F234A L235A)
heavy 1: not shown
light 1: not shown
heavy 2: B1 heavy 2
light 2: B1 light 2
notes: IgG4 PAA; PSMA arm chains first, then CD3 arm (F405L, R409K); also called PSMB119 x CD3B219
B8: PS3B20 (bispecific antibody, human IgG4 S228P, kappa, lambda, F234A L235A)
heavy 1: not shown
light 1: not shown
heavy 2: B1 heavy 2
light 2: B1 light 2
notes: IgG4 PAA; PSMA arm chains first, then CD3 arm (F405L, R409K); also called PSMB120 x CD3B219
B9: PS3B25 (bispecific antibody, human IgG4 S228P, kappa, lambda, F234A L235A)
heavy 1: not shown
light 1: not shown
heavy 2: B1 heavy 2
light 2: B1 light 2
notes: IgG4 PAA; also called PSMB87 x CD3B219

How the values were obtained:
[1] = molecular target: T1, human PSMA (prostate specific membrane antigen), full length (human, UniProt Q04609 1-750); test: FACS, whole cell binding, LNCaP
T1 construct: On LNCaP or C4-2B cells (endogenous) or transduced HEK293F cells; also called FOLH1_HUMAN; hPSMA
Experimental: (§1) PSMA×CD3 bispecific antibodies were tested for binding to PSMA positive cell lines LNCAP, human PSMA-HEK, Chimpanzee-PSMA-HEK and Cynomolgous monkey PSMA-HEK. To assess the binding capabilities of the PSMA bispecific antibodies, the cell-binding assay was utilized (described previously). Briefly, PSMA expressing tumor cells are bound by bispecific antibodies at known concentrations and the bound antibody is detected by an anti-human kappa light chain PE conjugated detection reagent (Invitrogen). The Mean Fluorescents Intensity (MFI) is the measure of bound bispecific antibody. The MFI is converted to a relative EC₅₀. EC₅₀ is a commonly used dose-response curve, where the half maximal effective concentration or the EC₅₀ point is defined as the inflection point of the curve. EC₅₀ s were determined by measuring cell bound bispecific and known concentrations. […] The dose response curves were then diluted down to that of background or no bispecific binding. The inflection point of this curve reflects the EC₅₀ point. The calculated EC₅₀ is determined by taking the ug/ml amount of bispecific antibody at the EC₅₀ point and converting it to a molarity value based on the MW of the bispecific antibody. Bispecific antibodies were normalized for protein concentration and then incubated with the same number of cells expressing either human or cyno PSMA. The MFI at each concentration was collected by flow cytometry and plotted as a function of concentration. Data was transformed via log 10 and then plotted. Nonlinear regression of binding curves was done to determine EC₅₀ s. These relative values were used for ranking PSMA binding to target cells.

[2] = molecular target: T2, recombinant chimpanzee PSMA extracellular domain (ECD) protein (Pan troglodytes, UniProt Q04609 44-750 (human entry)); test: SPR ProteOn, bsAb captured by anti-Fc
T2 construct: also called Chimp PSMA ECD; PSMG8
T2 chain: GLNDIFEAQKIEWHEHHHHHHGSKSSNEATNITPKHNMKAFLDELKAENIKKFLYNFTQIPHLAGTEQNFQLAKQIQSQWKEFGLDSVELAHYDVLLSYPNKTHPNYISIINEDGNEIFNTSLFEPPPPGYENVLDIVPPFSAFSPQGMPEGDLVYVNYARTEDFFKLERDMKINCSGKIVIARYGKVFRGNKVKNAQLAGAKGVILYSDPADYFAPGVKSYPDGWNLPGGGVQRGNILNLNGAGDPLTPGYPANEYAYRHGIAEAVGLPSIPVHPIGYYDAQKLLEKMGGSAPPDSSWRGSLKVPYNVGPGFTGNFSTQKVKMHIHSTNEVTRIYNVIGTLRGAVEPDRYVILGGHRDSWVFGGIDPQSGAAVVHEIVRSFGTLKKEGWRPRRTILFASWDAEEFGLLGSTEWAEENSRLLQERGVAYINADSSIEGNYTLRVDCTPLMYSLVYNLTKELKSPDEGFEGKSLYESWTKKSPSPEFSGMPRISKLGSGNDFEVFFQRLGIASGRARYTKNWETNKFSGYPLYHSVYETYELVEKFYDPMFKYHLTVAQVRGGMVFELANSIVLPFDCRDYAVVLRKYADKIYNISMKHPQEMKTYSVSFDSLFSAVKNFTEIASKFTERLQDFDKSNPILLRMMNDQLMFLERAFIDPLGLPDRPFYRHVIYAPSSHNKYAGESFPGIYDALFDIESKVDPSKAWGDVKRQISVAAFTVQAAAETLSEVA
Experimental: The interactions of PSMA×CD3 bispecific mAbs with target (recombinant Chimp, PSMA) were studied by Surface Plasmon Resonance (SPR) using a ProteOn XPR36 system (BioRad). […] Approximately 4400 RU (response units) of anti-Human IgG Fc antibodies were immobilized. The kinetic experiments were performed at 25° C. in running buffer (DPBS+0.03% P20+100 μg/ml BSA). […] The association phase was monitored for 3 minutes at 50 μL/min, then followed by 15 minutes of buffer flow (dissociation phase). The chip surface was regenerated with two 18 second pulses of 100 mM Phosphoric acid (H₃PO₄, Sigma, cat #7961) at 100 μL/min.
The collected data were processed using ProteOn Manager software. First, the data was corrected for background using inter-spots. Then, double reference subtraction of the data was performed by using the buffer injection for analyte injections. The kinetic analysis of the data was performed using a Langmuir 1:1 binding model.

[3] = molecular target: T3, Cynomolgous monkey PSMA, full length (Macaca fascicularis, UniProt Q04609 1-750 (human entry)); test: FACS, whole cell binding, cyno PSMA HEK
T3 construct: On transfected HEK293F cells; also called cyno PSMA; EHH56646.1
T3 chain: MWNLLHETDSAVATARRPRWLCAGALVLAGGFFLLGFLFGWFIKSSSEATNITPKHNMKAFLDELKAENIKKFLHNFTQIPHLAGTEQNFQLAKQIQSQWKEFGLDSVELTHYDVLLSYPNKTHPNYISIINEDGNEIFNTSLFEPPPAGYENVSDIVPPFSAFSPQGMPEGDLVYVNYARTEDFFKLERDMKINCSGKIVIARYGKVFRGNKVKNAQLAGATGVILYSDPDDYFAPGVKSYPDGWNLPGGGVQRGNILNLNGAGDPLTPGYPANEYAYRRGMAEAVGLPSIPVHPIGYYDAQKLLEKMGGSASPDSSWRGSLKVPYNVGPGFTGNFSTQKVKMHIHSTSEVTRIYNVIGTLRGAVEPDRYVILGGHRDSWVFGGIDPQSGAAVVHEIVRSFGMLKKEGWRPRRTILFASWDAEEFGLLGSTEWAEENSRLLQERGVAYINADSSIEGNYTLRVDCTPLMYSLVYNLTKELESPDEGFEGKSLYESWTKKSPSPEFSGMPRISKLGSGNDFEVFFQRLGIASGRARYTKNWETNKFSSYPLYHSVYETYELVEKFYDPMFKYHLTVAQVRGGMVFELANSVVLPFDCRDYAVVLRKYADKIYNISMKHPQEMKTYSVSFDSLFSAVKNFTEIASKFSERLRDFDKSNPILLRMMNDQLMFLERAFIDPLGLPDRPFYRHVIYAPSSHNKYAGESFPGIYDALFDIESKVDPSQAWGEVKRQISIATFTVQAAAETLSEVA
Experimental: as §1

[4] = molecular target: T3, Cynomolgous monkey PSMA, full length; test: FACS, whole cell binding, cyno PSMA HEK; calculated EC50
Experimental: as §1

T1 sequence (Q04609 whole entry): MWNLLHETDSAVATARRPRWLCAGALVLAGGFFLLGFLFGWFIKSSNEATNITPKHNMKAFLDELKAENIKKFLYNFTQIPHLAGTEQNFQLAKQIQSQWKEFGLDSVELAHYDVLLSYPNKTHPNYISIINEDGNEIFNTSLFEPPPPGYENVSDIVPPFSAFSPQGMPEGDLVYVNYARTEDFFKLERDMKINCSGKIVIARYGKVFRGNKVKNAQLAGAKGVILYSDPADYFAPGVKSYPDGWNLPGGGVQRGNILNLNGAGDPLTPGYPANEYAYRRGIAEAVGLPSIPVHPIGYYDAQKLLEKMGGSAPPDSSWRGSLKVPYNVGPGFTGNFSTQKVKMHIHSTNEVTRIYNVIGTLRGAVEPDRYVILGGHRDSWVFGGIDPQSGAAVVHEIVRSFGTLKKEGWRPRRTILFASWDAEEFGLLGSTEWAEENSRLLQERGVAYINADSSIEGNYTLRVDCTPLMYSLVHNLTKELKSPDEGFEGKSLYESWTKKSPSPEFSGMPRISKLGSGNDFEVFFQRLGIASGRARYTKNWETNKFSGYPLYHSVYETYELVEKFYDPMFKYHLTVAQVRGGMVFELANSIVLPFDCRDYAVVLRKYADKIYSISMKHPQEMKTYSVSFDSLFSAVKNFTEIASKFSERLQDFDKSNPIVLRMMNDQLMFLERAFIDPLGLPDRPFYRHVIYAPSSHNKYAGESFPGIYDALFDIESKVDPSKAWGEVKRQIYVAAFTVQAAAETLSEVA

Binder	EC50 [1] [µg/mL]	Kd [2] [nM]	koff [2] [s⁻¹]	kon [2] [M⁻¹ s⁻¹]	EC50 [3] [µg/mL]	EC50 [4] [nM]	binding result [1]
B1	2.07	10.4	0.00176	170000	1.4	9.9	
B2		40.3	0.000252	6260	18.2	128	binds
B3	2.6	19	0.00124	65100	1.14	8	
B4		1.8	0.00176	989000	3.74	26.4	
B5	1.16	17.4	0.00233	134000	0.688	4.8	
B6	1.2	22.4	0.00165	73400	5.37	37.8	
B7		23.6	0.000298	12600	1.76	12.4	binds
B8	123	21.4	0.000378	17600	2	14.1	
B9		5.5	0.00106	195000			
